In patent publication US20230167200A1 (BIOTHEUS, published 2023):
Blank lines part the entries; values can stand above or below the binder they belong to.

Tests used:
[1] = biological target: T1, anti-PD-1/TIGIT/human serum albumin trispecific antibody Bi-70-71; assay: BLI (Octet), antibody held on PD-1 sensor, human TIGIT 100 nM in solution
[2] = biological target: T2, anti-PD-1/TIGIT/human serum albumin trispecific antibody Bi-72-73; assay: as above
[3] = biological target: T1, anti-PD-1/TIGIT/human serum albumin …; assay: flow cytometry on CHO-hTIGIT cells
[4] = biological target: T2, anti-PD-1/TIGIT/human serum albumin …; assay: flow cytometry on CHO-hTIGIT cells
[5] = biological target: T3, human PD-L2 expressed on CHO cells (CHO-hPD-L2 cells) (human, UniProt Q9BQ51 20-273); assay: flow cytometry on CHO-hPD-L2 cells
T3 construct: whole, on cells; also called CHO-KI-PD-L1/PD-L2
T3 sequence (looked up): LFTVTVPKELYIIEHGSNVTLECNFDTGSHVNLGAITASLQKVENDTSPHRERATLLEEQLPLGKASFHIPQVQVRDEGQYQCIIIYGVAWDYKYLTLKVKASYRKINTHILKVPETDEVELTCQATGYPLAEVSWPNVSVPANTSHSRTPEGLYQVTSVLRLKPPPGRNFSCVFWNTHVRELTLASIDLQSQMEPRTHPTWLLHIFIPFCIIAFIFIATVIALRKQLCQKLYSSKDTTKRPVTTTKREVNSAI

[6] = biological target: T4, human PD-L1 expressed on CHO cells (CHO-hPD-L1 cells) (human, UniProt Q9NZQ7 19-290); assay: flow cytometry on CHO-hPD-L1 cells
T4 construct: whole, on cells; also called CHO-KI-PD-L1/PD-L2
T4 sequence (Q9NZQ7 19-290): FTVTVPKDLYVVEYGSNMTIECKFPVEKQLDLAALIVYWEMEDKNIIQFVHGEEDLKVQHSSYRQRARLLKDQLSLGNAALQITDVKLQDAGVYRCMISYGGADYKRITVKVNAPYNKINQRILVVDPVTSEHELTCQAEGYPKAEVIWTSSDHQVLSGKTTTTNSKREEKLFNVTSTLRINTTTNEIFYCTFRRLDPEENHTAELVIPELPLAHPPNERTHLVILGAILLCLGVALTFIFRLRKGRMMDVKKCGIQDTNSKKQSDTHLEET

- binding result [1]: binds
- binding result [2]: binds
B1: human TIGIT (ACROBiosystems) (receptor, UniProt Q495A1 22-141, looked up)
chain: MMTGTIETTGNISAEKGGSIILQCHLSSTTAQVTQVNWEQQDQLLAICNADLGWHISPSFKDRVAPGPGLGLTLQSLTVNDTGEYFCIYHTYPDGTYTGRIFLEVLESSVAEHGARFQIP
notes: Bought protein

- binding result [3]: binds
- binding result [4]: binds
B2: human TIGIT expressed on CHO cells (CHO-hTIGIT cells) (receptor, UniProt Q495A1 22-244, looked up)
chain: MMTGTIETTGNISAEKGGSIILQCHLSSTTAQVTQVNWEQQDQLLAICNADLGWHISPSFKDRVAPGPGLGLTLQSLTVNDTGEYFCIYHTYPDGTYTGRIFLEVLESSVAEHGARFQIPLLGAMAATLVVICTAVIVVVALTRKKKALRIHSVEGDLRRKSAGQEEWSPSAPSPPGSCVQAEAAPAGLCGEQRGEDCAELHDYFNVLSYRSLGNCSFFTETG
notes: whole, on cells; also called CHO-hTIGIIT

- binding result [5]: binds
- binding result [6]: binds
B3: anti-PD-L1/PD-L2 bispecific antibody Fc fusion protein Bi-203-204 (bispecific antibody, human IgG1, kappa, L234A L235A, V domains shown)
V domain 1: QVQLVESGGGLVKPGGSLRLSCAASGHTFIIYAIGWFRQAPGKGLEFVATINWSGSMTNYADSVKGRFTISRDNAKNTVYLQMNSLKPDDTAVYYCAAYVGATISTAHSRYDYWGQGTLVTVSS
V domain 2: EVQLVESGGGLVQPGGSLRLSCAASGRTFSSMTIGWFRQAPGKGLEFVSGIGWTSGLTVYADSVKGRFTISRDNAKNSMYLQMNSLRAEDTAVYYCAADSMNRGQFDYWGQGTLVTVSS
